Data published in paper PMC6429962 (Cell reports, 2019).
One block for each binder: values may come before it.

Target: T1, myc-tagged xFZD8 CRD (cysteine-rich domain of Xenopus Frizzled-8) (Xenopus, UniProt O93274 24-144)
T1 sequence (looked up): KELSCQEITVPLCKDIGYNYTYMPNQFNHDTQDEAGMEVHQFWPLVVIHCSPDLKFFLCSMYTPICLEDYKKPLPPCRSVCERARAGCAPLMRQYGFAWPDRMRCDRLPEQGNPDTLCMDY
Test: co-IP

fold reduction of apparent CRD binding strength against the wild type: ~10 fold
B1: human Wnt3a lacking the acylation site (hWnt3a^S209A) (ligand, UniProt P56704 19-352, looked up)
chain: SYPIWWSLAVGPQYSSLGSQPILCASIPGLVPKQLRFCRNYVEIMPSVAEGIKIGIQECQHQFRGRRWNCTTVHDSLAIFGPVLDKATRESAFVHAIASAGVAFAVTRSCAEGTAAICGCSSRHQGSPGKGWKWGGCSEDIEFGGMVSREFADARENRPDARSAMNRHNNEAGRQAIASHMHLKCKCHGLAGSCEVKTCWWSQPDFRAIGDFLKDKYDSASEMVVEKHRESRGWVETLRPRYTYFKVPTERDLVYYEASPNFCEPNPETGSFGTRDRTCNVSSHGIDGCDLLCCGRGHNARAERRREKCRCVFHWCCYVSCQECTRVYDVHTCK

fold more efficient co-immunoprecipitation than xWnt8^S187A: ~10 fold
B2: wild-type Xenopus Wnt8 (xWnt8^WT) (ligand, UniProt P28026 23-358, looked up)
chain: AWSVNNFLMTGPKAYLTYSASVAVGAQNGIEECKYQFAWERWNCPESTLQLATHNGLRSATRETSFVHAISSAGVMYTLTRNCSMGDFDNCGCDDSRNGRIGGRGWVWGGCSDNAEFGERISKLFVDGLETGQDARALMNLHNNEAGRLAVKETMKRTCKCHGISGSCSIQTCWLQLAEFRDIGNHLKIKHDQALKLEMDKRKMRSGNSADNRGAIADAFSSVAGSELIFLEDSPDYCLKNISLGLQGTEGRECLQSGKNLSQWERRSCKRLCTDCGLRVEEKKTEIISSCNCKFHWCCTVKCEQCKQVVIKHFCARRERDSNMLNTKRKNRGHRR
modifications: acylation site S187 (palmitoleoyl chain), as the paper says of the wild type
